B1: MMP-14 catalytic domain mutant F260A (enzyme)
chain: not shown
notes: also called F260A MMP-14 mutant
B2: Fab 3A2 (Fab, V domains shown)
VH: EVQLVESGGGLVQPGGSLRLSCAASGFNLSSSSMHWVRQAPGKGLEWVASIYPSYSYTYYADSVKGRFTISADTSKNTAYLQMNSLRAEDTAVYYCARVKLQKDKSHQWIRNLVATPYGRYVMDYWGQGTLVTVSS
VL: DIQMTQSPSSLSASVGDRVTITCRASQSVSSAVAWYQQKPGKAPKLLIYSASSLYSGVPSRFSGSRSGTDFTLTISSLQPEDFATYYCQQYGYPITFGQGTKVEIKR
notes: also called R3C9; not shown: His tag at the C-terminus of the heavy chain

Experiments:
[1] = target: B2; test: competitive ELISA: 10 nM Fab 3A2 pre-incubated with soluble MMP-14 mutant, then captured on immobilised wild-type MMP-14; anti-Fab-HRP
[2] = target: T1, catalytic domain of MMP-14 (cdMMP-14) (human, UniProt P50281 114-287, limits assumed, biotinylated (Sulfo-NHS-LC-Biotin) where immobilised via streptavidin); test: ELISA, Fab titrated on immobilised MMP-14 catalytic domain, anti-Fab-HRP
T1 construct: also called matrix metalloproteinase-14 catalytic domain; wild-type MMP-14

[3] = target: T1, catalytic domain of MMP-14 (cdMMP-14); test: surface plasmon resonance (Biacore), MMP-14 immobilised on the chip, Fab 3A2 injected at 10 nM; table beside the sensorgrams
[4] = target: T1, catalytic domain of MMP-14 (cdMMP-14); test: surface plasmon resonance (Biacore), MMP-14 immobilised on the chip, Fab 3A2 injected at 20 nM; table beside the sensorgrams
[5] = target: T1, catalytic domain of MMP-14 (cdMMP-14); test: cell-based or functional assay
[6] = target: T1, catalytic domain of MMP-14 (cdMMP-14); test: summary sentence on the Examples; enzyme inhibition
[7] = target: MMP-14 catalytic domain mutant F198A (human, UniProt P50281 114-287, limits assumed); test: cell-based or functional assay
[8] = target: MMP-14 catalytic domain mutant T190A (human, UniProt P50281 114-287, limits assumed); test: cell-based or functional assay
[9] = target: MMP-14 catalytic domain mutant N231A (human, UniProt P50281 114-287, limits assumed); test: cell-based or functional assay
[10] = target: MMP-14 catalytic domain mutant F204A (human, UniProt P50281 114-287, limits assumed); test: cell-based or functional assay
[11] = target: MMP-14 catalytic domain mutant Y203A (human, UniProt P50281 114-287, limits assumed); test: cell-based or functional assay
[12] = target: B1; test: cell-based or functional assay
[13] = target: T1, catalytic domain of MMP-14 (cdMMP-14); test: ELISA, Fab titrated on immobilised biotin-cdMMP-14, anti-Fab-HRP
[14] = target: T1, catalytic domain of MMP-14 (cdMMP-14); test: SPR (Biacore), KD from koff/kon
[15] = target: T1, catalytic domain of MMP-14 (cdMMP-14); test: surface plasmon resonance (Biacore), MMP-14 immobilised on the chip, Fab 3A2 injected at 15 nM; table beside the sensorgrams
[16] = target: T1, catalytic domain of MMP-14 (cdMMP-14); test: SPR (Biacore), MMP-14 amine-coupled to the chip, Fab as analyte, 25 °C
[17] = target: B1; test: competitive ELISA: 10 nM Fab 3A2 incubated with the mutant, then captured on immobilised wild-type MMP-14
[18] = target: T1, catalytic domain of MMP-14 (cdMMP-14); test: cell-based or functional assay; remark: listed apart in the source
[19] = target: T1, catalytic domain of MMP-14 (cdMMP-14); test: summary sentence on the Examples; method not given
[20] = target: catalytic domain of MMP-2 (human, UniProt P08253 115-449, limits assumed, biotinylated (Sulfo-NHS-LC-Biotin)); test: ELISA, purified Fab at 50, 100, 250 and 500 nM on immobilised MMP catalytic domain, anti-Fab-HRP, OD450
catalytic domain of MMP-2, sequence (P08253 other isoform, or with tags, fused parts or gaps limits assumed): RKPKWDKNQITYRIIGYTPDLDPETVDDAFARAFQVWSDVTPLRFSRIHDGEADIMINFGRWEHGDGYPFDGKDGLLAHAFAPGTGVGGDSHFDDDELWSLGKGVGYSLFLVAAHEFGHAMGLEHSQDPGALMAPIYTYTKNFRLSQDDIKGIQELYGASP

[21] = target: T2, catalytic domain of MMP-9 (cdMMP-9) (human, UniProt P14780 107-443, limits assumed); test: as above
T2 sequence: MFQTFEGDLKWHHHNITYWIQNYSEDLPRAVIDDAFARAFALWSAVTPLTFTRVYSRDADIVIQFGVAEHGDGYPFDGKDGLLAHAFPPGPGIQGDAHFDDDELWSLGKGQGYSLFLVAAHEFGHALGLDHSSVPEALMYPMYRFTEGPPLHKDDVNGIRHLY

[22] = target: T2, catalytic domain of MMP-9 (cdMMP-9); test: competitive ELISA: Fab R2C14 at its IC50 concentration pre-incubated with soluble cdMMP-9, then added to a plate coated with 100 nM cdMMP-14; anti-Fab-HRP
[23] = target: T2, catalytic domain of MMP-9 (cdMMP-9); test: ELISA on MMP-2, MMP-9 and MMP-14 catalytic domains

**Q.** Does B1 bind [1]?
**A.** no binding (tested: about 2000 nM (log10(nM) 3.3))

**Q.** With B2 as the binder, how does the EC50 [2] read?
**A.** 3.8 nM

**Q.** And the Kd [3]?
**A.** 1.74 nM

**Q.** What about the koff [3] of the same binder?
**A.** 0.000667 s⁻¹

**Q.** What about the kon [3] of the same binder?
**A.** 383000 M⁻¹ s⁻¹

**Q.** And the Kd [4]?
**A.** 9.17 nM

**Q.** What about the koff [4] of the same binder?
**A.** 0.00347 s⁻¹

**Q.** And the kon [4]?
**A.** 378000 M⁻¹ s⁻¹

**Q.** What about the “IC50 by FRET Assay” value [5] of the same binder?
**A.** 9.7 nM

**Q.** What about the Ki [6] of the same binder?
**A.** 10 nM

**Q.** What about the “inhibition (%) of peptide cleavage: 50 nM MMP-14 mutant, 5 uM Fab 3A2, 1 uM quenched fluorescent substrate” value (from here on “inhibition (%) of peptide cleavage”) [7] of the same binder?
**A.** 98%

**Q.** And the “inhibition (%) of peptide cleavage” value [8]?
**A.** 95%

**Q.** What about the “inhibition (%) of peptide cleavage” value [9] of the same binder?
**A.** 90%

**Q.** What about the “inhibition (%) of peptide cleavage” value [10] of the same binder?
**A.** 96%

**Q.** And the “inhibition (%) of peptide cleavage” value [11]?
**A.** 98%

**Q.** What about the “inhibition (%) of peptide cleavage” value [12] of the same binder?
**A.** 0%

**Q.** And the EC50 [13]?
**A.** 3.8 nM

**Q.** And the Kd [14]?
**A.** 4.76 nM

**Q.** And the Kd [15]?
**A.** 3.64 nM

**Q.** What about the koff [15] of the same binder?
**A.** 0.00125 s⁻¹

**Q.** What about the kon [15] of the same binder?
**A.** 344000 M⁻¹ s⁻¹

**Q.** What about the koff [16] of the same binder?
**A.** 0.00179 s⁻¹

**Q.** What about the kon [16] of the same binder?
**A.** 368000 M⁻¹ s⁻¹

**Q.** Does B2 bind [17]?
**A.** no binding (tested: 0-2,000 nM mutant)

**Q.** What about the “Inhibition potency (FRET IC50)” value [18] of the same binder?
**A.** 9.7 nM

**Q.** What about the Kd [19] of the same binder?
**A.** 4.85 nM

**Q.** Does B2 bind [20]?
**A.** no binding (tested: 500 nM)

**Q.** Does B2 bind [21]?
**A.** no binding (tested: 500 nM)

B3: Fab R2C14 (Fab, V domains shown)
VH: EVQLVESGGGLVQPGGSLRLSCAASGFNIYSSSIHWVRQAPGKGLEWVASIYSYSGYTYYADSVKGRFTISADTSKNTAYLQMNSLRAEDTAVYYCARVSNRYNRSSASIAGLQLFRPYGMDYWGQGTLVTVSS
VL: DIQMTQSPSSLSASVGDRVTITCRASQSVSSAVAWYQQKPGKAPKLLIYSASSLYSGVPSRFSGSRSGTDFTLTISSLQPEDFATYYCQQSSYSLITFGQGTKVEIKR
**Q.** Does B3 bind [22]?
**A.** no binding (tested: about 4000 nM (log10(nM) about 3.6))

**Q.** What about the EC50 [13] of the same binder?
**A.** 1200 nM

**Q.** And the “Inhibition potency (FRET IC50)” value [18]?
**A.** 10 nM

B4: Fab 33D2 (Fab, V domains shown)
VH: EVQLVESGGGLVQPGGSLRLSCAASGFNLYYSSIHWVRQAPGKGLEWVAYISSYSGYTSYADSVKGRFTISADTSKNTAYLQMNSLRAEDTAVYYCARSKYGPASRQLASRTSWSGPRGKYGMDYWGQGTLVTVSS
VL: DIQMTQSPSSLSASVGDRVTITCRASQSVSSAVAWYQQKPGKAPKLLIYSASSLYSGVPSRFSGSRSGTDFTLTISSLQPEDFATYYCQQAYGSYLITFGQGTKVEIKR
notes: not shown: His tag at the C-terminus of the heavy chain
**Q.** For B4, which EC50 [2] is on record?
**A.** 120 nM

**Q.** What about the “IC50 by FRET Assay” value [5] of the same binder?
**A.** 420 nM

**Q.** What about the “Selectivity over MMP-2/-9 (ratio of Fab concentrations giving the same ELISA signal, MMP-2/-9 against MMP-14)” value [23] of the same binder?
**A.** 9.6 fold
